Experimental data taken from US20030171565.

T1: protein zero related (PZR), tyrosine-phosphorylated
T1 chain: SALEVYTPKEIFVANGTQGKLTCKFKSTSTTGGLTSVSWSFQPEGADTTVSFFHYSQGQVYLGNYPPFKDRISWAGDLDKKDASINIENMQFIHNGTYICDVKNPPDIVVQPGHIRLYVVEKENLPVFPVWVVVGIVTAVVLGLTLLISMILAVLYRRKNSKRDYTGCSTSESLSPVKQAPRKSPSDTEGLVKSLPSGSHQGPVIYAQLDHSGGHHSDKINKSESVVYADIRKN


Biological target: T1, protein zero related (PZR), …

| Protein | dephosphorylation of purified p43 in vitro (anti-phosphotyrosine Western blot) | in vitro dephosphorylation of immuno-purified tyrosine-phosphorylated PZR | in vitro dephosphorylation of immuno-purified tyrosine-phosphorylated PZR (anti-phosphotyrosine Western blot) |
| --- | --- | --- | --- |
| tyrosine phosphatase SHP-2, native full-length form (protein) TSRRWFHPNITGVEAENLLLTRGVDGSFLARPSKSNPGDFTLSVRRNGAVTHIKIQNTGDYYDLYGGEKFATLAELVQYYMEHHGQLKEKNGDVIELKYPLNCADPTSERWFHGHLSGKEAEKLLTEKGKHGSFLVRESQSHPGDFVLSVRTGDDKGESNDGKSKVTHVMIRCQELKYDVGGGERFDSLTDLVEHYKKNPMVETLGTVLQLKQPLNTTRINAAEIESRVRELSKLAETTDKVKQGFWEEFETLQQQECKLLYSRKEGQRQENKNKNRYKNILPFDHTRVVLHDGDPNEPVSDYINANIIMPEFETKCNNSKPKKSYIATQGCLQNTVNDFWRMVFQENSRVIVMTTKEVERGKSKCVKYWPDEYALKEYGVMRVRNVKESAAHDYTLRELKLSKVGQGNTERTVWQYHFRTWPDHGVPSDPGGVLDFLEEVHHKQESIMDAGPVVVHCSAGIGRTGTFIVIDILIDIIREKGVDCDIDVPKTIQMVRSQRSGMVQTEAQYRFIYMAVQHYIETLQRRIEEEQKSKRKGHEYTNIKYSLADQTSGDQSPLPPCTPTPPCAEMREDSARVYENVGLMQQQKSFR | SHP-2 caused complete dephosphorylation of p43 | higher concentrations of SHP-2 (up to 5 µg/ml) helped to push the dephosphorylation to near completion | full length SHP-2 caused rapid dephosphorylation |
| SH2 domain-truncated form of SHP-2 (protein) NPMVETLGTVLQLKQPLNTTRINAAEIESRVRELSKLAETTDKVKQGFWEEFETLQQQECKLLYSRKEGQRQENKNKNRYKNILPFDHTRVVLHDGDPNEPVSDYINANIIMPEFETKCNNSKPKKSYIATQGCLQNTVNDFWRMVFQENSRVIVMTTKEVERGKSKCVKYWPDEYALKEYGVMRVRNVKESAAHDYTLRELKLSKVGQGNTERTVWQYHFRTWPDHGVPSDPGGVLDFLEEVHHKQESIMDAGPVVVHCSAGIGRTGTFIVIDILIDIIREKGVDCDIDVPKTIQMVRSQRSGMVQTEAQYRFIYMAVQHYIETLQRRIEEEQKSKRKGHEYTNIKYSLADQTSGDQSPLPPCTPTPPCAEMREDSARVYENVGLMQQQKSFR | – | – | the truncated enzyme had essentially no effect |
